Test results as given in PMC7082061 (PLoS Pathogens, 2020).

Target: full-length wild type MOKV G (MOKV G WT) (Mokola virus) (UniProt P0C572)
Assay: negative staining electron microscopy

full-length wild type MOKV G (MOKV G WT), sequence (P0C572 20-522): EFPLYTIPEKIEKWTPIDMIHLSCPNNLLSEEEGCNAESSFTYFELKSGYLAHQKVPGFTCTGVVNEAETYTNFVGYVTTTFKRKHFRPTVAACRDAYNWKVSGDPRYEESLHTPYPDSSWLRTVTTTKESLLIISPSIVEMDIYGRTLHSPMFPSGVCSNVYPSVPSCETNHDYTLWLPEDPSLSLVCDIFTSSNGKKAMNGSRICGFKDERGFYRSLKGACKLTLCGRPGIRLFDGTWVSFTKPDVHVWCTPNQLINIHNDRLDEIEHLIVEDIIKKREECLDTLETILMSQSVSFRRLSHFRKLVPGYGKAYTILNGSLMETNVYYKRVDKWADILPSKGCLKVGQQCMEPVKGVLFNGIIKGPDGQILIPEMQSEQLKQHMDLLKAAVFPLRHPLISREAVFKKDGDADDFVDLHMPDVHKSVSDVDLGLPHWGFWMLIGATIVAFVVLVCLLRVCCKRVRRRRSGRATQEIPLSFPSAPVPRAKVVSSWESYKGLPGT

Question: “full-length wild type MOKV G (MOKV G WT) (from UniProt P0C572 20-522) (natural protein)” was tested. Which stoichiometry N did it give?
Answer: 3
